Measured values taken from patent US20240066131A1 (Protagonist Therapeutics, Inc., priority 2020, published 2024).
Like-named read-outs stand apart in the source and are kept apart here. Values belong to the binder of their own block, whether it stands above or below them. Starred links: 1 amine or outer side, 2 acyl side, 3 side chain; linkers in the order of their positions; H or OH if unused. Non-standard residues stand in square brackets, D forms with d. Groups on a side chain read outwards from the residue. No end group written: not given here. *: point of attachment. bhGly(phenylbutyl) = 3-((4-phenylbutyl)amino)propanoic acid, O=C(CCN(CCCCc1ccccc1)[*:1])[*:2]; Carnitine = carnitine group on the Lys side chain, C[N+](C)(C)C[C@H](O)CC(=O)*; Dip = N[C@H](C(=O)O)C(c1ccccc1)c1ccccc1; Palmitoyl = CCCCCCCCCCCCCCCC(=O)*; β3hF = N[C@H](CC(=O)O)Cc1ccccc1; DMG_N_2ae = not defined here; NMeK = CN[C@@H](CCCCN)C(=O)O; Isovaleryl = CC(C)CC(=O)*; Orn = NCCC[C@H](N)C(=O)O; Dap = NC[C@H](N)C(=O)O; LAc = not defined here; Ahx = NCCCCCC(=O)O

Tests used:
Test in all cases: cell-based or functional assay
[1] = molecular target: T1, human ferroportin (SLC40A1) fused in frame with GFP, stably expressed in HEK293 cells (human, UniProt Q9NP59 1-571)
T1 sequence (looked up): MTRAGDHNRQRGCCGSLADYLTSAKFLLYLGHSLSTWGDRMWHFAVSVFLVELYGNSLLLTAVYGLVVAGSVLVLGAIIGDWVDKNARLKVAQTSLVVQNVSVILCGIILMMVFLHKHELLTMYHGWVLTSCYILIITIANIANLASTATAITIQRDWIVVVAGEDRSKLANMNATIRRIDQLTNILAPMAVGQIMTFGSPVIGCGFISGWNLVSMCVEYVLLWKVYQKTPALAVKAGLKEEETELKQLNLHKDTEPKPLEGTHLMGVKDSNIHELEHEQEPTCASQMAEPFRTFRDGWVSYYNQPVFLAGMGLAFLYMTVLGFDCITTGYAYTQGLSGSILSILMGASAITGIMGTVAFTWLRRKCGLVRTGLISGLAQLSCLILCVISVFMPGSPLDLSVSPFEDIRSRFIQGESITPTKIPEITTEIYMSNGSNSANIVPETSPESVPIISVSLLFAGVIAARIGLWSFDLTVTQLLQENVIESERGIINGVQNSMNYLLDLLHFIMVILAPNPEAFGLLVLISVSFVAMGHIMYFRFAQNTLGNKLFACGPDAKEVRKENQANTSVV

[2] = molecular target: T1, human ferroportin (SLC40A1) fused in …; remark: listed apart in the source
[3] = molecular target: T2, ferroportin endogenously expressed on T47D cells (HTB 133, ATCC) (human, UniProt Q9NP59 1-571)
T2 sequence (looked up): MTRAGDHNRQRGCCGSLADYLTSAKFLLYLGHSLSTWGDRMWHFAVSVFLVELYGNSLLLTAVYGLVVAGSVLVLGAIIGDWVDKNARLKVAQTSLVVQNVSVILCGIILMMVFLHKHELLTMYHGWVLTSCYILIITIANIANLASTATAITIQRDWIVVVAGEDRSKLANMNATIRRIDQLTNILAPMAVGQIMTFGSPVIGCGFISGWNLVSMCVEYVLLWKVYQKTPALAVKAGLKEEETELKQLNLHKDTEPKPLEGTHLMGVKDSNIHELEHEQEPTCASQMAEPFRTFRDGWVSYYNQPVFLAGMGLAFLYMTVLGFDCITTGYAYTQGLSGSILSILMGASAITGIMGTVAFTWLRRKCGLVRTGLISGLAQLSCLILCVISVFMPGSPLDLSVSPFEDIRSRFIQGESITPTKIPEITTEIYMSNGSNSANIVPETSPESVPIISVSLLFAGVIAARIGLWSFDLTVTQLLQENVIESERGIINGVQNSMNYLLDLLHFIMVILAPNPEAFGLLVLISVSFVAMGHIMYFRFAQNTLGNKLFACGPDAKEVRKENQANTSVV

[4] = molecular target: T1, human ferroportin (SLC40A1) fused in …; remark: listed apart in the source
[5] = molecular target: T2, ferroportin endogenously expressed on …; remark: listed apart in the source
[6] = molecular target: T3, human ferroportin (SLC40A1) fused in frame with GFP, stably expressed in HEK293 cells (human) (UniProt Q9NP59)
T3 sequence (looked up): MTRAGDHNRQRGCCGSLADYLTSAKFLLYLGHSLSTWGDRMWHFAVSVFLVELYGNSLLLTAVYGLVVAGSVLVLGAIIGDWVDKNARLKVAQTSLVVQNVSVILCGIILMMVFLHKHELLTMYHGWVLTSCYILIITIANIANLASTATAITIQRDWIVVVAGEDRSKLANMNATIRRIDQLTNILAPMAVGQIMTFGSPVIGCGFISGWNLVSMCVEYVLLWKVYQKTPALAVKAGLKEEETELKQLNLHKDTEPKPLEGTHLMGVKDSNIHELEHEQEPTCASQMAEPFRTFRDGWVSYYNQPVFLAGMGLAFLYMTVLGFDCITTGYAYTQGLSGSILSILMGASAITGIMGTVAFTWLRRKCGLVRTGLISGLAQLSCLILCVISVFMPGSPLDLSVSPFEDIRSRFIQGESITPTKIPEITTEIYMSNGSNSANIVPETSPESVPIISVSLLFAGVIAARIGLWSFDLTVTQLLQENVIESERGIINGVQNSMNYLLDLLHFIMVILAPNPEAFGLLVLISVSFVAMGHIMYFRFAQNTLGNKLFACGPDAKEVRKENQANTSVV

- IC50: FPN internalisation [1]: 10.7 nM
Binder: Isovaleryl-ETH[Dip]P[DMG_N_2ae][NMeK]([Ahx-Palmitoyl])[β3hF]-NH2 (reading uncertain) [[Isovaleric Acid]-E-T-H-[Dpa]-P-[DMG_N_2ae]-[N-MeLys(Ahx_Palm)]-[bhPhe]-NH2]

- FPN IC50 [2]: 27.5 nM
- T47D IC50 [3]: 284 nM
Binder: Isovaleryl-K(LAc)TH[Dip]PAIK([Ahx-Palmitoyl])[β3hF]-NH2 (reading uncertain) [Isovaleric Acid-[Lys(LAc-T-H-[Dpa]-P-A-I-[Lys(Ahx_Palm)]-[bhPhe]-NH2]

- FPN IC50 [4]: 42 nM
- T47D IC50 [5]: 19.1 nM
Binder: Isovaleryl-ETH[Dip]PAK(Gal)K([Ahx-Palmitoyl])[β3hF]-NH2 [Isovaleric Acid-E-T-H-[Dpa]-P-A-[Lys(Gal-[Lys(Ahx_Palm)]-[bhPhe]-NH2]

- IC50: FPN internalisation [1]: 201 nM
Binder: Isovaleryl-[Orn]TH[Dip]PAI[NMeK]([Ahx-Palmitoyl])[bhGly(phenylbutyl)] [[Isovaleric Acid]-[Orn]-T-H-[Dpa]-P-A-I-[N-MeLys(Ahx_Palm)]-[bhGly(phenylbutyl)]]

- Potency EC50 [6]: 712 nM
Binder: H-DTHFPICIF-NH2 (peptide, from a related filing) [Mini-Hepcidin 1-9: Hy-…-NH2]

- FPN IC50 [2]: 27 nM
- T47D IC50 [3]: 229 nM
Binder: Isovaleryl-K(Glu)TH[Dip]PAIK([Ahx-Palmitoyl])[β3hF]-NH2 [Isovaleric Acid-[Lys(Glu-T-H-[Dpa]-P-A-I-[Lys(Ahx_Palm)]-[bhPhe]-NH2]

- IC50: FPN internalisation [1]: 10.7 nM
B1: [Isovaleric Acid]-K-T-H-[Dpa]-P-A-I-E-[bhPhe]-[Lys(Ahx_Palm)]-[Lys(Carnitine)]-NH2 (peptide)
peptide: Isovaleryl-KTH[Dip]PAIE[β3hF]K([Ahx-Palmitoyl])K(Carnitine)-NH2
SMILES: CCCCCCCCCCCCCCCC(=O)NCCCCCC(=O)NCCCC[C@H](NC(=O)C[C@H](Cc1ccccc1)NC(=O)[C@H](CCC(=O)O)NC(=O)[C@@H](NC(=O)[C@H](C)NC(=O)[C@@H]1CCCN1C(=O)[C@@H](NC(=O)[C@H](Cc1c[nH]cn1)NC(=O)[C@@H](NC(=O)[C@H](CCCCN)NC(=O)CC(C)C)[C@@H](C)O)C(c1ccccc1)c1ccccc1)[C@@H](C)CC)C(=O)N[C@@H](CCCCNC(=O)C[C@@H](O)C[N+](C)(C)C)C(N)=O

- IC50: FPN internalisation [1]: 597 nM
Binder: Isovaleryl-[Dap]TH[Dip]PAI[NMeK]([Ahx-Palmitoyl])[bhGly(phenylbutyl)] [[Isovaleric Acid]-[Dap]-T-H-[Dpa]-P-A-I-[N-MeLys(Ahx_Palm)]-[bhGly(phenylbutyl)]]

- FPN IC50 [2]: 62.2 nM
- T47D IC50 [3]: 464 nM
Binder: Isovaleryl-ETH[Dip]K([Ahx-Palmitoyl])-N_Butyl_Phe [Isovaleric Acid-E-T-H-[Dpa]-[Lys(Ahx_Palm)]-N_Butyl_Phe]

- IC50: FPN internalisation [1]: 13.6 nM
Binder: Isovaleryl-KTH[Dip]P[DMG_N_2ae]E[β3hF]K([Ahx-Palmitoyl])-NH2 (reading uncertain) [[Isovaleric Acid]-K-T-H-[Dpa]-P-[DMG_N_2ae]-E-[bhPhe]-[Lys(Ahx_Palm)]-NH2]

- IC50: FPN internalisation [1]: 35.6 nM
B2: [Isovaleric Acid]-E-T-H-[Dpa]-P-[DMG_N_2ae]-[(D)Lys]-[bhPhe]-[Lys(Ahx_Palm)]-NH2 (peptide)
peptide: XETHXPXXXX
modifications: N-term Isovaleric Acid; Dpa4; DMG_N_2ae6; (D)Lys7; bhPhe8; Lys(Ahx_Palm)9; C-term NH2

- FPN IC50 [4]: 14.3 nM
- T47D IC50 [5]: 35.5 nM
Binder: Isovaleryl-ETH[Dip]PK(Gal)IK([Ahx-Palmitoyl])[β3hF]-NH2 [Isovaleric Acid-E-T-H-[Dpa]-P-[Lys(Gal-I-[Lys(Ahx_Palm)]-[bhPhe]-NH2]
